Consider 1 protein from paper PMC10864366, “Aggresome formation promotes ASK1/JNK signaling activation and stemness maintenance in ovarian cancer” (Nature Communications, 2024).

This series deals with the molecule itself. The series is described as follows: gel-shift assay (SDS-PAGE of heated and unheated protein, Coomassie stain); purified OTUD1 WT and Δ105–164 protein; heated (100 °C) and unheated samples separated by SDS-PAGE.

B1: purified OTUD1 protein (WT), pET28a-mEGFP-OTUD1 (natural protein, UniProt Q5VV17 1-481, looked up)
chain: MQLYSSVCTHYPAGAPGPTAAAPAPPAAATPFKVSLQPPGAAGAAPEPETGECQPAAAAEHREAAAVPAAKMPAFSSCFEVVSGAAAPASAAAGPPGASCKPPLPPHYTSTAQITVRALGADRLLLHGPDPVPGAAGSAAAPRGRCLLLAPAPAAPVPPRRGSSAWLLEELLRPDCPEPAGLDATREGPDRNFRLSEHRQALAAAKHRGPAATPGSPDPGPGPWGEEHLAERGPRGWERGGDRCDAPGGDAARRPDPEAEAPPAGSIEAAPSSAAEPVIVSRSDPRDEKLALYLAEVEKQDKYLRQRNKYRFHIIPDGNCLYRAVSKTVYGDQSLHRELREQTVHYIADHLDHFSPLIEGDVGEFIIAAAQDGAWAGYPELLAMGQMLNVNIHLTTGGRLESPTVSTMIHYLGPEDSLRPSIWLSWLSNGHYDAVFDHSYPNPEYDNWCKQTQVQRKRDEELAKSMAISLSKMYIEQNACS
notes: OTUD1, wild type; also called purified native WT OTUD1 protein; source: pET28a-mEGFP-OTUD1 construct, purified
Regarding B1, the binding result is recorded as “binds”.
